In publication PMC8498651 (Cell Reports, 2021):

Key:
[1] = biological target: Recombinant SARS-CoV-2 RBD protein (E. coli) (SARS-CoV-2, UniProt P0DTC2); experiment: BLI
SARS-CoV RBD = SARS-CoV RBD (SARS-CoV, strain , UniProt P59594); experiment: BLI

Row | Binder | Kd [1] [nM] | half-life of dissociation [1] [min] | binding result (SARS-CoV RBD)
1 | 2H04, anti-SARS-CoV-2 mAb (IgG) (antibody, V domains shown) VH: EVQLQQSGAELVKPGASVKMSCKASGYTFTSYWITWVKQRPGQGLEWIGDIYPGSGSTKYNEKFRSEATLTVDTSSTTAYMQLSSLTSEDSAVYYCARWDFYGSRTFDYWGQGTTLTVSS VL: DIVLTQSPAILSVSPGERVSFSCRASQNIGTIIHWYQQRTNGSPRLLIKYASESVSGIPSRFSGSGSGTDFTLSINSVESEDIADYYCQQSSSWPLTFGAGTKLEL | 40.1 | 1.27 | –
2 | 2B04, anti-SARS-CoV-2 mAb (IgG) (antibody, V domains shown) VH: QVQLKQSGPGLVAPSQSLSITCTVSGFSLINYAISWVRQPPGKGLEWLGVIWTGGGTNYNSALKSRLSISKDNSKSQVFLKMNSLQTDDTARYYCARKDYYGRYYGMDYWGQGTSVTVS VL: QAVVTQESALTTSPGETVTLTCRSSTGAVTTSNYANWVQEKPDHLFTGLIGGTNNRAPGVPARFSGSLIGDKAALTITGAQTEDEAIYFCALWYNNHWVFGGGTKLTVL | 1.05 | 23.7 | no binding
